We go through two sequences from patent US10765761B2, “Nucleic acid condensing peptide, nucleic acid condensing peptide set, nucleic acid delivery carrier, nucleic acid delivery method, cell production method, cell detection method and kit” (KABUSHIKI KAISHA TOSHIBA, priority 2016, dated 2020).

For data set [1], the system named is plasmid vector (pDNA). As to the kind of experiment: Average particle diameter and Zeta potential of peptide-nucleic-acid complexes (zetasizer), Example 1. Type of data set: physicochemical. Conditions: for characteristics of condensing the nucleic acid: judged from particle diameter and its dispersion (Table 2, FIGS. 4 and 5). As for the experimental part:
The condensability of the nucleic acid by the peptide of the embodiment and the potential of the peptide-nucleic-acid complex were evaluated.
The peptides were each dissolved in 10 mM of HEPES (pH: 5.3) to prepare several peptide solutions having different peptide concentrations.
For the protamine, three peptide solutions were prepared to have peptide concentrations of: (1) 2.1 mg/ml, (2) 2.4 mg/ml and (3) 2.7 mg/ml. For the mHP-4, four peptide solutions were prepared to have peptide concentrations of: (4) 1.8 mg/ml, (5) 2.1 mg/ml, (6) 2.4 mg/ml and (7) 2.7 mg/ml. For the mHP-1, three peptide solutions were prepared to have peptide concentrations of: (8) 2.1 mg/ml, (9) 2.4 mg/ml and (10) 2.7 mg/ml. For the mHP-2, five peptide solutions were prepared to have peptide concentrations of: (11) 1.2 mg/ml, (12) 1.5 mg/ml, (13) 2.1 mg/ml, (14) 2.4 mg/ml and (15) 2.7 mg/ml. For the mHP-3, three peptide solutions were prepared to have peptide concentrations of: (16) 2.1 mg/ml, (17) 2.4 mg/ml and (18) 2.7 mg/ml. Further, plasmid vector (pDNA) was diluted with purified water to prepare a nucleic acid solution having a pDNA concentration of 3.0 mg/ml.
18 sets of nucleic acid solutions (90 μL) put in tubes were prepared and the peptide solutions (1) to (18) (90 μL) described above were dropped respectively therein and mixed while stirring each, to condense the nucleic acids. Thus, the peptide-nucleic-acid complexes were obtained. Then, the mixtures were each diluted with purified water to 25-fold to produce peptide-nucleic-acid solutions. Further, as references, samples containing only each respective peptide were also prepared without adding the nucleic acid solutions thereto.
The average particle diameter and Zeta potential of each of the peptide-nucleic-acid complexes were investigated using the peptide-nucleic-acid solutions. The average particle diameter and Zeta potential were measured using a zetasizer.

Data set [2] concerns plasmid vector (pDNA). Description: Gel retardation assay: condensability and dissociation, Example 2. It is filed as binding. The note with it: 0.8% agarose gel, samples of any concentration (FIG. 6); for dissociation: PGA (+) sample; for condensability: PGA (-) sample. As for the experimental part:
The condensability of the nucleic acid by the peptide of the embodiment and the dissociation of the peptide and the nucleic acid were estimated by a gel retardation assay.
As samples for the condensability evaluation, 18 sets of 8.0 μL of 10 mM-HEPES (pH: 5.3) were prepared and 1.0 μL of the respective peptide-nucleic-acid solutions of Example 1 and […] were added thereto and mixed, thus preparing mixtures. As samples for the dissociation evaluation, 1.0 μL of peptide-nucleic-acid solutions and 1.0 μL of poly-glutamic-acid (PGA) solutions were added to 8.0 μL of 10 mM-HEPES solutions (pH: 5.3) and mixed, thereby preparing mixtures. After they were let stand still for 15 minutes at room temperature, 1.0 μL of an electrophoretic buffer (50%-sucrose solution) was added to each mixture, and they were mixed well, to carry out electrophoresis with a 0.8%-agarose gel. After the electrophoresis, the nucleic acid dyed with ethidium bromide was visualized by UV irradiation, and the nucleic acids condensed by the peptide and the nucleic acid dissociating with the peptide and moving into a gel were detected.
FIG. 6 is a photograph showing the agarose gel subjected to UV irradiation. Of two lanes indicated by the numbers of the respective samples, the left lane indicates the results of a PGA (−) sample (sample for the condensability evaluation) and the right lane for those of a PGA (+) sample (sample for the dissociation evaluation). When an integrated band with a large molecular weight, which strongly shines is observed in the left lane, it was evaluated as a high condensability. […] The mHP-1 and mHP-3 were excellent both in condensability and dissociation in the samples of any concentration. In particular, they were excellent in the peptide-nucleic-acid solutions (8) and (16).

Data set [3] deals with plasmid. As to the kind of experiment: Amount of encapsulation of plasmid in liposome (Quant-iT PicoGreen dsDNA assay kit), Example 3. It is filed as physicochemical. How it is done: COATSOME/SS-20 (Nippon Oil & Fats), DOPE, cholesterol and DMG-PEG were dissolved into ethanol at a molar ratio of 5:3:1:0.3, to obtain a lipid solution. Two sets of lipid solutions (0.5 ml) put into tubes were prepared, and 0.5 ml of peptide-nucleic-acid solutions (8) (mHP-1) and (16) (mHP-3) of Example 1 were dropped thereto while stirring each lipid solution, thereby forming liposomes. 9 ml of 10 mM-HEPES (pH: 5.3) was added to each of the liposome solutions to make a total amount of 10 ml (each liposome solution will be referred to as “Complex” hereinafter). Further, on an assumption that the liposome is taken into an organism, and liposome solutions (which will be referred to as “HEPES replacement”) in which ethanol, which is the solvent of Complex is substituted by HEPES were produced. The HEPES replacements were produced by condensing each solution of Complex to 1.5 ml with an ultrafiltration film for 300 kDa, adding 8.5 ml of 100 mM-HEPES (pH: 7.4) to each, performing ultrafiltration, thereafter substituting the solvent with 10 mM-HEPES (pH: 7.4), and finally condensing to 0.5 ml. Further, the HEPES replacements were filtered for sterilization with a filter with a pore diameter of 0.45 μm to prepare solutions (which will be referred to as “0.45 μm” hereinafter).
The “peptide-nucleic-acid solution”, “HEPES substituent” and “0.45 micrometer”, each of which contain the protamine, mHP-1 or mHP-3 prepared as above were examined in terms of average particle diameter of liposome, Zeta potential and amount of encapsulation of plasmid. The average particle diameter and Zeta potential were measured using a zetasizer. The amount of encapsulation of plasmid was measured using a Quant-iT PicoGreen (registered trademark) dsDNA assay kit.

A short description of data set [4]: Average particle diameter, polydispersity index and Zeta potential of liposome (Complex), Example 8. It is filed as physicochemical. How it is done: COATSOME/SS-20 (Nippon Oil & Fats), DOPE, cholesterol and DMG-PEG were dissolved into ethanol at a molar ratio of 5:3:1:0.3, to obtain a lipid solution. Five sets of 50 μL of lipid solutions put into tubes were prepared, and 50 μL of peptide-nucleic-acid solutions (1) to (4) and (7) of Example 6 were dropped thereto while stirring each lipid solution, thereby forming liposomes. 400 μL of 10 mM-HEPES (pH: 5.4) was added to each of the liposome solutions to make a total amount of 500 μL (this liposome solution will be referred to as “Complex” hereinafter).
The average particle diameter, polydispersity index and Zeta potential of liposome were investigated using the Complex. The average particle diameter, polydispersity index and Zeta potential were measured using a zetasizer.

Where [5] appears, read: pDNA/peptide 1/0.7 (peptide conc. 2.1 mg/mL).
Where [6] appears, read: pDNA/peptide 1/0.8 (peptide conc. 2.4 mg/mL).
The mark [7] stands for this setting: pDNA/peptide 1/0.9 (peptide conc. 2.7 mg/mL).
[8] abbreviates: peptide solely, no nucleic acid (Reference).

Regarding “RQRQRGGRRRRRR (Nucleic acid condensing peptide) [mHP-3]”, the “characteristics of condensing the nucleic acid” value in data set [1] is “excellent”. The “Average particle diameter (zAve)” value is reported as 135.8 nm in data set [1] (setting [5]), 134.9 nm in data set [1] (setting [6]), 148.2 nm in data set [1] (setting [7]) and 322.9 nm in data set [1] (setting [8]). Moreover, the Zeta potential in data set [1] (setting [5]) is −28.1 mV; in data set [1] (setting [6]), −25.9 mV; in data set [1] (setting [7]), −28.3 mV; in data set [1] (setting [8]), 17.0 mV. The dissociation entry in data set [2] is given as “excellent”. In addition, the condensability entry in data set [2] is on record as “excellent”. For the same sequence, the figures for the Plasmid inclusion amount in data set [3] (0.45 μm filtered) and in data set [3] (HEPES substitution) were 84.14 µg/mL and 96.94 µg/mL, respectively.
For “RQRQRYYRQRQRGGRRRRRR (Nucleic acid condensing peptide) [mHP-1]”, the “characteristics of condensing the nucleic acid” value in data set [1] was “excellent”. Moreover, the “Average particle diameter (zAve)” value in data set [1] (setting [5]) was found to be 124.0 nm; in data set [1] (setting [6]), 133.4 nm; in data set [1] (setting [7]) it was 158.0 nm; in data set [1] (setting [8]), 444.0 nm; in data set [4], 244.7 nm. Further, the Zeta potential in data set [1] (setting [5]) is listed as −28.2 mV; in data set [1] (setting [6]), −26.7 mV; in data set [1] (setting [7]) it was −25.5 mV; in data set [1] (setting [8]), 37.2 mV; in data set [4], 31.6 mV. Further, the dissociation entry in data set [2] is “excellent”. Also, the condensability result in data set [2] is “excellent”. The “Polydispersity index (PDI)” value in data set [4] worked out at 0.193. In addition, the Plasmid inclusion amount was 37.30 µg/mL in data set [3] (0.45 μm filtered) and 42.12 µg/mL in data set [3] (HEPES substitution).
